Assay results as given in patent US20260028608A1.
Read-outs that look alike come from different tables or passages of the source.

Assays:
Experiment in all cases: cell-based or functional assay
[1] = target: XGEVA (Amgen), human IgG2
[2] = target: human IgG3 from Sigma (15654 Lot #SLBW0899) (human)
[3] = target: Humira (Abbvie), human IgG1
[4] = target: human IgG4 from Abcam (ab90286 Lot #GR3180469) (human)
[5] = target: XGEVA (Amgen), human IgG2; remark: listed apart in the source
[6] = target: Humira (Abbvie), human IgG1; remark: listed apart in the source

Work on “IdeS (Immunoglobulin G-degrading enzyme of S. pyogenes), control polypeptide pCART124” yielded a Conc. of enzyme for cleavage of 1st IgG2 heavy chain, IgG to scIgG (SDS-PAGE) [1] of 40 ng/mL, a Conc. of enzyme for cleavage of 2nd IgG2 heavy chain, scIgG to F(ab)2 (SDS-PAGE) [1] of 1100 ng/mL and an IgG2 EC50 F(ab')2 (SDS-PAGE, visual estimate) [1] of 0.12 mg/L. The IgG2 EC50 scIgG (SDS-PAGE, visual estimate) [1] was 0.003 mg/L, the IgG3 EC50 F(ab')2 (SDS-PAGE, visual estimate) [2] was 0.015 mg/L and the IgG3 EC50 scIgG (SDS-PAGE, visual estimate) [2] was 0.0022 mg/L. The Approximate EC50 value, i.e. equal amounts of scIgG and F(ab')2 (SDS-PAGE) [3] was 0.12 mg/L, the Conc. of enzyme for cleavage of 1st IgG1 heavy chain, IgG to scIgG (SDS-PAGE) [3] was 4.5 ng/mL and the Conc. of enzyme for cleavage of 2nd IgG1 heavy chain, scIgG to F(ab')2 (SDS-PAGE) [3] was 400 ng/mL. It also gave an IgG1 EC50 F(ab')2 (SDS-PAGE, visual estimate) [3] of 0.08 mg/L, an IgG1 EC50 scIgG (SDS-PAGE, visual estimate) [3] of 0.001 mg/L and a fold of EC50 F(ab')2 for IgG1, IdeS against N240 [3] of 5 fold. For the same substance, the IgG4 EC50 F(ab')2 (SDS-PAGE, visual estimate) [4] was 0.18 mg/L, the IgG4 EC50 scIgG (SDS-PAGE, visual estimate) [4] was 0.002 mg/L and the Conc. of enzyme for cleavage of 1st IgG2 heavy chain, IgG to scIgG (SDS-PAGE) [5] was 10 ng/mL. The Conc. of enzyme for cleavage of 2nd IgG2 heavy chain, scIgG to F(ab)2 (SDS-PAGE) [5] was 400 ng/mL, the Conc. of enzyme for cleavage of 1st IgG1 heavy chain, IgG to scIgG (SDS-PAGE) [6] was 1.5 ng/mL and the Conc. of enzyme for cleavage of 2nd IgG1 heavy chain, scIgG to F(ab')2 (SDS-PAGE) [6] was 120 ng/mL.
